The values that follow come from patent US20180118800.

In series [1] the test system is T1, PVSGPRHGDGSF (SEQ ID NO: 7).
T1 sequence: PVSGPRHGDGSF

Series [2] concerns T2, PLTPRHGDGSF (SEQ ID NO: 6).
T2 sequence: PLTPRHGDGSF

Series [3] concerns T3, ITDPLVPRHGDGS (SEQ ID NO: 8).
T3 sequence: ITDPLVPRHGDGS

The test system of series [4] is His6-Smt3-LTPR-GLP-2 analog fusion protein.
Series [5] deals with T4, His6-Smt3-GLP-2 analog fusion protein.
T4 chain: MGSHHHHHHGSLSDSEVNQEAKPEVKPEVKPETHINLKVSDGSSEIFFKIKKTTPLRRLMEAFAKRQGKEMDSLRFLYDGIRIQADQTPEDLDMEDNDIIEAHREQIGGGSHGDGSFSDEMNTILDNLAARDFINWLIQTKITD

For the molecule thrombin, the “thrombin cleavage of synthetic peptide, RP-HPLC (C18)” value in series [1] was “Each of the three peptides was cleaved with thrombin”; in series [2], “PLTPRHGDGSF was cleaved the most thoroughly”; in series [3] it was “Each of the three peptides was cleaved with thrombin”. The “thrombin cleavage of fusion protein, RP-HPLC (C18)” value in series [4] is given as “produced a complete cleaved product without partially cleaved segments after thrombin cleavage”. Moreover, the “thrombin cleavage of fusion protein, SDS-PAGE” value in series [4] is “thrombin had only one cleavage site on the His6-Smt3-Linker-GLP-2 analog fusion protein”.

B1: U1p1 protease (protein)
chain: LVPELNEKDDDQVQKALASRENTQLMNRDNIEITVRDFKTLAPRRWLNDTIIEFFMKYIEKSTPNTVAFNSFFYTNLSERGYQGVRRWMKRKKTQIDKLDKIFTPINLNQSHWALGIIDLKKKTIGYVDSLSNGPNAMSFAILTDLQKYVMEESKHTIGEDFDLIHLDCPQQPNGYDCGIYVCMNTLYGSADAPLDFDYKDAIRMRRFIAHLILTDALK
As for B1, in series [5], the “U1p1 protease cleavage of fusion protein, SDS-PAGE” value is reported as “U1p1 protease had only one cleavage cite on the His6-Smt3-GLP-2 analog fusion protein but cleaved far less efficiently than thrombin cleaving a His6-Smt3-Linker-GLP-2 analog fusion protein”.
